From article PMC8534903

Tested on: His-Mwt (matrix protein M) (Human respiratory syncytial virus (A2?))
Test: EMSA
Conditions: 10 mM HEPES (pH not stated), 0.25 mM DTT, 50 mM KCl, 10 uL, 15 min at room temperature; 0.8% agarose gel, 40 V, 8 h, 4 C

Substance: control luciferase RNA (T7 transcript)
- K half: 2100 nM
